Experimental data as given in PMC12350152 (Nature Structural & Molecular Biology, 2025).

T1: Pfs48/45 fragment containing D3 (ELISA antigen) (Plasmodium falciparum, strain not …)
T1 chain: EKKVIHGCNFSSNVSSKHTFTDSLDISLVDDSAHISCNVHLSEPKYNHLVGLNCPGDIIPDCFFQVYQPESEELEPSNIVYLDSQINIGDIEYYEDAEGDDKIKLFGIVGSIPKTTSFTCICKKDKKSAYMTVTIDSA


What was measured:
[1] = target: recombinant full-length Pfs48/45 (ELISA antigen) (Plasmodium falciparum, strain not …, UniProt Q8I6T1); test: ELISA
[2] = target: T1, Pfs48/45 fragment containing D3 (ELISA …); test: ELISA
[3] = target: Pfs48/45 on live female Pf NF54 gametes (Plasmodium falciparum NF54 (3D7 is its …, UniProt Q8I6T1)); test: flow cytometry on cells
[4] = target: Pfs48/45 D1D2 (domains 1 and 2, aa 27–294), native sequence (Plasmodium falciparum (isolate 3D7)., UniProt Q8I6T1); test: BLI
Sequence of Pfs48/45 D1D2 (domains 1 and 2, aa 27–294), native sequence (Q8I6T1 27-294): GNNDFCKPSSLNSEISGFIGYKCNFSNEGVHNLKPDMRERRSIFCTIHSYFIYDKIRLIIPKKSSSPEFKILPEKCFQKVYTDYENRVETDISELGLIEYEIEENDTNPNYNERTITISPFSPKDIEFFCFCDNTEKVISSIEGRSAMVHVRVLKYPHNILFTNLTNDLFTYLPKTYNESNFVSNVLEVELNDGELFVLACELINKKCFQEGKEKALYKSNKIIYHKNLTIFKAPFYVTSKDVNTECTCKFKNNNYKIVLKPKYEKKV

Sequence of Pfs48/45 on live female Pf NF54 gametes (Plasmodium falciparum NF54 (Q8I6T1 28-426): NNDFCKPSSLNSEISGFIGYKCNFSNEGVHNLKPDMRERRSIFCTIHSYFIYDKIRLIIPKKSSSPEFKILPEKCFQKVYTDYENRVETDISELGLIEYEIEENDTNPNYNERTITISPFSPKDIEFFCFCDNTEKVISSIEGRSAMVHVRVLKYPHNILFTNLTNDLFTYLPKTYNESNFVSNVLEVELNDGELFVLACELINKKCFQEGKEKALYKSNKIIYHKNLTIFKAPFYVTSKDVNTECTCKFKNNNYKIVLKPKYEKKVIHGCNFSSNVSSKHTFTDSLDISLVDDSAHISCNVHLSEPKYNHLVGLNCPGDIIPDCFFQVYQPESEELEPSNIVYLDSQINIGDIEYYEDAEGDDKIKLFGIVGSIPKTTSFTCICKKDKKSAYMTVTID
Sequence of recombinant full-length Pfs48/45 (ELISA antigen) (Q8I6T1 28-426): as above

Row | binding result [1] | binding result [2] | binding result [3] | binding result [4] | Binder
1 | binds | binds | binds |  | RUPA-44 mAb (IgG) (antibody, V domains shown) VH: QLQLQESGPGLVKPSETLSLTCTVSGGSISRSPYYWGWIRQPPGKGLEWFGSIYNNGSTYYNPPLKSRLTISVDTSKNQFSLKLSSVTAADTAVYYCARHGGSTGMKVVVIAPPDYWGQGTLVTVSS VL: DIQMTQSPATLSASVGDRVTITCRASQSISSWLAWYQQKPGEAPKLLIYKASSLQSGVPSRFSGSGSGTKFSLTISSLQPDDFATFYCQQYHSYPYTFGQGTKLEIK
2 |  |  |  | binds | 10D8 Fab (Fab, V domains shown) VH: EVMLVESGGDLVKPGGSLKVSCAASGFTFSNYAMSWVRQTPEKRLEWVATISSGASYTHYPDSVKGRFTISRDNAKNTLYLQMSSLRSEDTAMYYCGRQVNRHDRALDAMDYWGQGTSVTVSP VL: not shown
